Results on 5 molecules are retold here after patent US6916472B2, “PON3 and uses thereof” (Regents of the University of Michigan, priority 2000, dated 2005).

Changes are numbered by the printed parent chain. Numbers in names are those of the source.

A short description of data set [1]: Statinase activity of samples of BL21(DE3) culture expressing rPON3. The data set is classed as biochemical. The following applies: culture sample. The protocol:
(§1) The hydrolysis of the statin lactones (mevastatin, lovastatin and simvastatin) was analyzed by high performance liquid chromatography (HPLC) using a Beckman System Gold HPLC with a Model 126 Programmable Solvent Module, a Model 168 Diode Array Detector set at 238 nm, a Model 7125 Rheodyne manual injector valve with a 20 μl loop, and a Beckman ODS Ultrasphere column (C 18, 250×4.6 mm, 5 μm). Lovastatin (Mevacor) and simvastatin were purchased as 20 mg tablets from Merck, from which the lactones were extracted with chloroform, evaporated to dryness and redissolved in methanol. Mevastatin was purchased from Sigma.
In a final volume of 1 ml, 10-200 μl of enzyme solution and 10 μl of substrate solution in methanol (0.5 mg/ml) were incubated at 25° C. in 50 mM Tris/HCl (pH 7.6), 1 mM CaCl2. Aliquots (100 μl) were removed at specified times and added to acetonitrile (100 μl), vortexed, and centrifuged for one minute at maximum speed (Beckman microfuge). The supernatants were poured into new tubes, capped and stored on ice until HPLC analysis.
Samples were eluted isocratically at a flow rate of 1.0 ml/min with a mobile phase consisting of the following: A=acetic acid/acetonitrile/water (2:249:249, v/v/v) and B=acetonitrile, in A/B ratios of 50/50, 45/55 and 40/60 for mevastatin, lovastatin and simvastatin, respectively. Under the above conditions the retention times for the carboxylic acid formed and the lactone substrate were as follows: 4.5/6.4 min (mevastatin), 4.4/5.6 min (lovastatin) and 5.4/7.7 min (simvastatin), respectively. Response factors for the acid products were calculated from the peak heights after complete alkaline hydrolysis of the lactones in 0.02 M NAOH for 2-24 hours at 25° C.
This Example describes the expression of rabbit PON3 protein in bacteria. The endogenous NcoI site at the translation start site, and an engineered XhoI site in the 3′ UTR were used to clone the rPON3 cDNA into the bacterial expression vector pET24d+. The resulting vector (prPON3/pET24d) was transformed into bacterial BL21(DE3) cells. LB broth supplemented with […] Kanamycin was inoculated with a single colony and the bacteria were grown at 37° C. When the culture reached an OD600 of 0.7, IPTG (1 mM) was added and growth continued. Samples of the culture were taken at the time of induction and 1, 2, 4, and 16 hours post-induction. Samples were electrophoresed through a 10% SDS-PAGE gel and Western blotted with a human PON1 antibody. An inducible, 40 kDa band was visible in the 1, 2, 4, and 16 time point lanes that aligned with a rPON3 standard. The samples were also assayed and found to have 257, 8663, 6178, 5872, and 8436 U/ml statinase activity for time points 0, 1, 2, 4, and 16 respectively.

Data set [2] deals with mice given LD100 dose of LPS. The following applies: cited from earlier work.
In data set [3] the test system is LDL. Put plainly: Protection of LDL against copper-induced oxidation (conjugated dienes, lipid peroxides). The data set is classed as biochemical, rabbit. The following applies: LDL 0.1 mg protein/ml, 2-10 μM CuSO4, up to 5 h at 37° C. The protocol: In one illustrative example (Example 5) of the present invention, the ability of PON3 to protect against LDL oxidation was assayed. In this example, LDL oxidation was induced by the incubation of the lipoprotein with 2-10 μM CuSO4 in the air, in the absence or presence of PON3 or PON 1, for up to 5 h at 37° C. The kinetics of lipoprotein oxidation was followed by monitoring the conjugated dienes formation at 234 nm (Esterbauer et al., Free Radical Res Commun, 6:67-75 [1989]) using a quartz microtiter plate in a SPECTRAmax® 190 plate reader (Molecular Devices). Lipoprotein oxidation was also determined by the lipid peroxides test, which analyzes lipid peroxides by their capacity to convert iodide to iodine, as measured photometrically at 365 nm (E1-Saadani et al., J Lipid Res, 30:627-630 [1989]).
LDL were isolated by ultracentrifugation as described above (Example 4). […] The kinetics of lipoprotein oxidation was followed by monitoring the conjugated dienes formation at 234 nm (Esterbauer et al., Free Radical Res Commun, 6:67-75 [1989]) using a quartz microtiter plate in a SPECTRAmax 190 plate reader (Molecular Devices). Lipoprotein oxidation was also determined by the lipid peroxides test, which analyzes lipid peroxides by their capacity to convert iodide to iodine, as measured photometrically at 365 nm (E1-Saadani et al., J Lipid Res, 30:627-630 [1989]).

A short description of data set [4]: Lactonase activity of wild type and mutant rPON3 in expression media of transfected 293T cells. In kind it is biochemical. The following applies: Lovastatin hydrolysis; based on quantitation of western blot. The protocol:
as §1, with “Sigma. […]” for “Sigma.”
Samples were eluted isocratically at a flow rate of 1.0 ml/min with a mobile phase consisting of the following: A=acetic acid/acetonitrile/water (2:249:249, v/v/v) and B=acetonitrile, in A/B ratios of 50/50, 45/55 and 40/60 for mevastatin, lovastatin and simvastatin, respectively. […] Response factors for the acid products were calculated from the peak heights after complete alkaline hydrolysis of the lactones in 0.02 M NAOH for 2-24 hours at 25° C.
Expression media from the transient transfection of mutant clones into 293T cells was analyzed for activity towards the lactone Lovastatin up to 4 days post transfection.
Specific activities were calculated based on quantitation of the western blot in FIG. 10. […]
On the technique in general: In western blotting, separated proteins are transferred to a membrane and probed.

B1: rPON3: recombinant rabbit PON3 expressed in 293T cells or E. coli BL21(DE3) (protein)
chain: AKLLLLTLLGASLAFVGERLLAFRNSFGAVQELEPVEPQNCVLIEGLENGSEDIDILPSGLAFISSGLKYPGMPNFAPDEPGKIFLIDMNEKNPRAQELEISNGFEKESFNPHGISTFIDKDHTVYLYVVNHPHMKSTVEIFKFEEQQRSLVHLKTIKHELLKSVNNIVVLGPEQFYATRDHYFTNYVLALLEMFLDLHWTSVLFYSPKEVKVVAKGFSSANGITVSLDKKYVYVADATAKNVHVMEKHDNWDLTELKVIHLDTLVDNLSVDPATGDILAGCHPNGMKLLNYNPEDPPGSEVLRIQNVLSEKPRVSTVYTNDGSVLQGSTVASVYQGKILIGTIFHKTLYCVL
Consider B1, for which the statinase activity in data set [1] (1 hour post-induction) was found to be 8663 U/ml; in data set [1] (2 hours post-induction) it was 6178 U/ml; in data set [1] (4 hours post-induction), 5872 U/ml; in data set [1] (16 hours post-induction) it was 8436 U/ml; in data set [1] (time point 0 (time of IPTG induction)) it was 257 U/ml.

B2: human PON1: purified human PON1 (paraoxonase 1), literature study of LaDu et al. (protein, UniProt P27169 2-355, looked up)
Serum …: AKLIALTLLGMGLALFRNHQSSYQTRLNALREVQPVELPNCNLVKGIETGSEDLEILPNGLAFISSGLKYPGIKSFNPNSPGKILLMDLNEEDPTVLELGITGSKFDVSSFNPHGISTFTDEDNAMYLLVVNHPDAKSTVELFKFQEEEKSLLHLKTIRHKLLPNLNDIVAVGPEHFYGTNDHYFLDPYLQSWEMYLGLAWSYVVYYSPSEVRVVAEGFDFANGINISPDGKYVYIAELLAHKIHVYEKHANWTLTPLKSLDFNTLVDNISVDPETGDLWVGCHPNGMKIFFYDSENPPASEVLRIQNILTEEPKVTQVYAENGTVLQGSTVASVYKGKLLIGTVFHKALYCEL
Consider B2, for which the “survival, pretreated animals” value in data set [2] (i.p. injection before LD100 dose of LPS) was 60%. The “survival, post-treated animals” value in data set [2] (i.p. injection up to 2 hours after LD100 dose of LPS) is reported as 30%.

B3: PON3: paroxonase 3 polypeptide purified from rabbit serum, 40 kDa, SEQ ID NO:8 (protein, listed as Oryctolagus cuniculus)
chain: MAKLLLLTLLGASLAFVGERLLAFRNSFGAVQELEPVEPQNCVLIEGLENGSEDIDILPSGLAFISSGLKYPGMPNFAPDEPGKIFLIDMNEKNPRAQELEISNGFEKESFNPHGISTFIDKDHTVYLYVVNHPHMKSTVEIFKFEEQQRSLVHLKTIKHELLKSVNNIVVLGPEQFYATRDHYFTNYVLALLEMFLDLHWTSVLFYSPKEVKVVAKGFSSANGITVSLDKKYVYVADATAKNVHVMEKHDNWDLTELKVIHLDTLVDNLSVDPATGDILAGCHPNGMKLLNYNPEDPPGSEVLRIQNVLSEKPRVSTVYTNDGSVLQGSTVASVYQGKILIGTIFHKTLYCVL
In the case of B3, in data set [3], the “inhibiting conjugated diene and lipid peroxide formation, compared with PON1” value is given as “significantly better”.

B4: L281W: site-directed single amino acid change mutant of rabbit PON3, SEQ ID NO:14 (protein, listed as Oryctolagus cuniculus)
chain: B3 chain with L280W
In the case of B4, the “specific activity compared to the wild type (fraction)” value in data set [4] was “about ⅓”.

B5: K243H: site-directed single amino acid change mutant of rabbit PON3, SEQ ID NO:12 (protein, listed as Oryctolagus cuniculus)
chain: B3 chain with K242H
As to B5, in data set [4], the “specific activity compared to the wild type (fraction)” value is listed as “about ⅓”.
